This is an account of results in US20210238276A1 (INTEGRAL MOLECULAR, published 2021).

Numbering of substitutions follows the chain as printed.

Holding throughout (experiment): flow cytometry, alanine-scan library in HEK-293T
Background: A flow cytometer gives signals particle by particle.

For assay [1], the target named is T1, hsGLUT4 M158A (human, UniProt P14672 1-509).
T1 sequence: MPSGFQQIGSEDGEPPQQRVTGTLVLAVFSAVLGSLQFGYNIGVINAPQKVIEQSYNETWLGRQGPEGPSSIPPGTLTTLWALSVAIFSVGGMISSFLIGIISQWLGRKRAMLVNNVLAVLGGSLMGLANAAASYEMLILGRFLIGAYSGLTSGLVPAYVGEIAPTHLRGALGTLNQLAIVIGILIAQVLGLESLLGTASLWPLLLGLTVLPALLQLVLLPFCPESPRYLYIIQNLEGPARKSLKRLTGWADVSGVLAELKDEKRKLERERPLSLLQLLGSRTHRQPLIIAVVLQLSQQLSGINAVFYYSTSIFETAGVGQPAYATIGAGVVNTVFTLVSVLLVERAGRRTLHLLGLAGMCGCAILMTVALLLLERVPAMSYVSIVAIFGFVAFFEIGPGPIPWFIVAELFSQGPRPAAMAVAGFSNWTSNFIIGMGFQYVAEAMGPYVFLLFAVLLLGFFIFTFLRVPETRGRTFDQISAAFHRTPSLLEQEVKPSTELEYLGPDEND
In a few lines:
(§1)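 HEK-293T cells expressing individual GLUT4 alanine mutants were stained 48 h post-transfection with anti-GLUT4 scFv MAbs (2 μg/ml), then biotinylated secondary and streptavidin-PerCP, and read by high-throughput flow cytometry. Where used, cytochalasin B (10 uM final) was given for 30 min before and during primary antibody staining.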

The target of assay [2] is T2, hsGLUT4 E162A (human, UniProt P14672 1-509).
T2 sequence: T1 sequence with A158M, E162A
In a few lines:
as §1

Assay [3] addresses T3, hsGLUT4 L296A (human, UniProt P14672 1-509).
T3 sequence: T1 sequence with A158M, L296A
The procedure, abridged:
as §1

In assay [4] the target is T4, hsGLUT4 G446A (human, UniProt P14672 1-509).
T4 sequence: T1 sequence with A158M, G446A
In a few lines: as §1

On to 1F8 (antibody), for which the % of binding to wild type GLUT4 was 95% in assay [1], 87% in assay [2], 105% in assay [3] and 108% in assay [4].

B1: AB108 (Fc fusion)
scFv: ALTQPSSVSANLGGTVKITCSGSSGSYGWYQQKAPGSAPVTLIYRNDKRPSDIPSRFSGSESGSTGTLTITGVQAEDEAVYFCGGYDSSAGYAAFGAGTTLTVLGQSSRSSGGGGSSGGGGSAVTLDESGGGLQTPGGALSLVCKASGFTFSSHGMGWVRQAPGKGLEWVGSISTGRYTFYAPAVKGRATISRDNGQSTLRLQLNNLRAEDTGTYYCTKCAGLNGCGGGEIDAWGHGTEVIVSS
notes: Bivalent scFv-Fc; also called MAb AB108; not shown: Fc fragment of human IgG1, cloned in frame with the scFv
Turning to B1, the “% of binding to wild type GLUT4” value was found to be 110% in assay [1], 41% in assay [2], 72% in assay [3] and 86% in assay [4].

B2: AB111 (Fc fusion)
scFv: ALTQPSSVSANPGETVKITCSGSGSWYGWFQQKSPGSAPVTVIYSNDKRPSDIPSRFSGSKSGSTSTLTITGVQVEDEAVYYCGNWDIFGAGTTLTVLGQSSRSSGGGGSSGGGGSAVTLDESGGGLQTPGGALSLVCKASGFTFSSHGMGWVRQAPGKGLEWVASISTGRYTFYAPAVKGRATISRDNGQSTVRLQLNNLRAEDTATYYCTKCAGLNGCGGGEIDAWGHGTEVIVSS
notes: Bivalent scFv-Fc; also called MAb AB111; not shown: Fc fragment of human IgG1, cloned in frame with the scFv
For B2, the “% of binding to wild type GLUT4” value was 107% in assay [1], 72% in assay [2], 144% in assay [3] and 71% in assay [4].

B3: AB101 (scFv)
scFv: ALTQPSSVSANPGETVKITCSGSSNSYGWYQQKSPGSAPVTVIYYNDKRPSDIPSRFSGSKSDSTHTLTITGVRAEDEAVYFCGSYDSTYVGIFGAGTTLTVLGQSSRSSGGGGSSGGGGSAVTLDESGGGLQTPGGTLSLVCKASGFTFSSNAMGWVRQAPGKGLEWVAGISSDGRYTKYGSAVKGRATISRDNGQSTVRLQLNNLRAEDTGTYFCAKAFGNNYRRIYAGQIDAWGHGTEVIVSS
notes: Chicken-derived clone used as a control; the four lead clones were tested as scFv-human IgG1 Fc; also called MAb AB101
As for B3, the “% of binding to wild type GLUT4” value in assay [1] was determined as 126%; in assay [2], 83%; in assay [3] it was 90%; in assay [4], 95%.
